The assay addresses T1, Syntaxin-1A (183-288) (Rattus norvegicus, UniProt P32851 183-288).
T1 construct: Syntaxin-1A, Rattus norvegicus, residues 183-288
Description: complex assembly from purified proteins, isolated by ion-exchange chromatography; truncated syb-2, syntaxin-1A and SNAP-25a mixed at 1.5:1:1 molar ratio, incubated at 4 °C overnight, complex purified by ion-exchange chromatography in the presence of CHAPS. Conditions: both partners purified.

T1 sequence (P32851 183-288): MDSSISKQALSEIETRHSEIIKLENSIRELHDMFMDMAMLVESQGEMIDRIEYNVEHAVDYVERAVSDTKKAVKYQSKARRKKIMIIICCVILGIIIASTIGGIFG

B1: Truncated synaptobrevin-2 (49-96) (domain or fragment, Rattus norvegicus, UniProt P63045 49-96, looked up)
chain: NVDKVLERDQKLSELDDRADALQAGASQFETSAAKLKRKYWWKNLKMM
notes: Synaptobrevin-2 (VAMP2), Rattus norvegicus, residues 49-96; also called truncated syb-2; C-terminal syb fragment
Regarding B1, the binding result is “binds”.
